Assay results from US20250361274A1, “PEPTIDE AND PEPTIDE-CONTAINING AGENT” (PEPTIDREAM INC., priority 2022, published 2025).
Numbered stars: 1 amine (or outer) side, 2 acyl side, 3 side chain; on linkers, the order of the positions; unused ones are H or OH. Bridge positions count the residues as written; N and C are the ends. Square brackets hold non-standard residues; d marks the D form. Ends that are not written are not given here. KCOpipzaa = N6-(4-(carboxymethyl)piperazine-1-carbonyl)-L-lysine, O=C(NCCCC[C@H](N[*:1])C(=O)[*:2])N1CCN(CC(=O)[*:3])CC1; 3Pal(6-Ph) = N[C@@H](Cc1ccc(-c2ccccc2)nc1)C(=O)O; Phe(4-COOH) = N[C@@H](Cc1ccc(C(=O)O)cc1)C(=O)O; Bip = N[C@@H](Cc1ccc(-c2ccccc2)cc1)C(=O)O; 4Pal = N[C@@H](Cc1ccncc1)C(=O)O

Tests used:
[1] = biological target: T1, BMP4 (Homo sapiens, UniProt P12644); assay: BMP4 signal transduction inhibitory activity: SMAD1 phosphorylation by BMP4 stimulus, AlphaLISA SureFire, A549 cells; format: cell-based; settings: A549 cells, SMAD1 phosphorylation; peptides of Synthesis 2; peptide 0.02, 0.2, 2 nM
T1 sequence (P12644 293-408): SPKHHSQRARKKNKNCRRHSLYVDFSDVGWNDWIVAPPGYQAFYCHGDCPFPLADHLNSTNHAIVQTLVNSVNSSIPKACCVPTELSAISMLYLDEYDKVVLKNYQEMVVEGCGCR
Method: In the present Example, a BMP4 signal transduction inhibitory activity of each peptide consisting of an amino acid sequence set forth in any of SEQ ID NOs: 5 to 240 and 243 to 421 synthesized in Example 10 was verified by phosphorylation of SMAD1 caused by BMP4 stimulus. A549 cells were cultured in MEM (Thermo Fisher Scientific) containing 10% FBS (Thermo Fisher Scientific), 1×Non-essential amino acids (Thermo Fisher Scientific), and 50 μg/mL Gentamicin. After TrypLE (Gibco) was used to peel the cells, seeding was performed in a 96-well plate for adhesion cells so that the number of cells would be 20,000 per well, followed by culturing for 48 hours. After the cells were cultured as described above, the culture medium was replaced with a peptide solution or recombinant Human Noggin Protein (R&D) solution as a positive control diluted to various concentrations in a nutrition-starved culture medium containing 0.1% BSA (Sigma) instead of FBS Thirty minutes after culturing, […], to stimulate it for 60 minutes. The culture medium was removed and the cells were lysed with Lysis Buffer provided with AlphaLISA (registered trademark) SureFire (registered trademark) Ultra SMAD1 (p-[…]/465) Assay kit (PerkinElmer). According to the protocol of the kit, a signal was detected using SpectraMax (registered trademark) Paradigm (registered trademark) multimode microplate reader (Molecular Devices). The obtained signal was analysed using GraphPad Prism (GraphPad Software). The % inhibition was calculated by considering non-stimulation as 100% inhibition and BMP stimulation only as 0% inhibition. Regarding SEQ ID NOs: 5 to 187, the concentrations of the peptides synthesized in the same manner as in Example 2 (shown as 2 in the row of Synthesis) were 0.02 nM, 0.2 nM, and 2 nM, and the concentrations of the peptides synthesized in the same manner as in Example 1 (shown as 1 in the row of Synthesis) were 0.2 nM, 2 nM, and 20 nM. The evaluation results were based on the results of evaluation using the peptides synthesized in the same manner as in Example 2. […] Regarding SEQ ID NOs: 243 to 321, the test was performed at the concentrations described in Table 6. […] Regarding SEQ ID NOs: 322 to 421, the test was performed at the concentrations described in Table 7. […] The evaluation tests of the signal transduction inhibitory activities of SEQ ID NOs: 87, 177, and 181 are as follows. Specifically, the inhibitory activity of BMP4 was evaluated in the same manner as in Example 11 that used A549 cells. Eight concentrations of the peptides were used at a common ratio of 1/3 starting from 2 nM. The inhibitory activity of BMP7 was evaluated in the same manner as in Example 12. Eight concentrations of the peptides were used at a common ratio of 1/3 starting from 100 nM. Note that recombinant Human Noggin Protein (R&D) as a positive control was used at the same concentration as that of the peptide. […] The inhibitory activity of BMP7 was evaluated using eight concentrations of the peptides at a common ratio of 1/3 starting from 1,000 nM in the same manner as in Example 12.

[2] = biological target: T2, BMP7 (Homo sapiens, UniProt P18075); assay: BMP7 signal transduction inhibitory activity: SMAD1 phosphorylation by BMP7 stimulus, A549 cells; format: cell-based; settings: A549 cells, 10 nM BMP7; peptides of Synthesis 2; peptide 1, 10, 100 nM
T2 sequence (P18075 293-431): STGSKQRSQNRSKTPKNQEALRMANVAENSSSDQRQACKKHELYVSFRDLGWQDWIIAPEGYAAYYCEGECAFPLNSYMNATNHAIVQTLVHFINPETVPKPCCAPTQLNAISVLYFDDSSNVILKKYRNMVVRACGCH
Method: In the present Example, BMP7 signal transduction inhibitory activity of each peptide consisting of an amino acid sequence set forth in any of SEQ ID NOs: 5 to 240 and 243 to 421 synthesized in Example 10 was verified by phosphorylation of SMAD1 caused by BMP7 stimulus. The evaluation was performed using 10 nM of BMP7 instead of BMP 4. Regarding SEQ ID NOs: 5 to 240, the concentrations of the peptides synthesized in the same manner as in Example 2 (shown as 2 in the row of Synthesis) were 1 nM, 10 nM, and 100 nM, and the concentrations of the peptides synthesized in the same manner as in Example 1 (shown as 1 in the row of Synthesis) were 10 nM, 100 nM, and 1,000 nM, similarly with Example 11. […] Regarding SEQ ID NOs: 243 to 273 and SEQ ID NOs: 299 to 321, the test was performed at the concentrations (10, 100, 1,000 nM) described in Table 6. […] Regarding SEQ ID NOs: 274 to 298, the test was performed at the concentrations (100, 300, 1,000 nM) described in Table 6. […] Regarding SEQ ID NOs: 322 to 370 and SEQ ID NOs: 393 to 421, the test was performed at the concentrations (1, 10, 100 nM). […] Regarding SEQ ID NOs: 371 to 391, the test was performed at the concentrations (10, 30, 90 nM). […] The evaluation tests of the signal transduction inhibitory activities of SEQ ID NOs: 87, 177, and 181 are as follows. Specifically, the inhibitory activity of BMP4 was evaluated in the same manner as in Example 11 that used A549 cells. Eight concentrations of the peptides were used at a common ratio of 1/3 starting from 2 nM. The inhibitory activity of BMP7 was evaluated in the same manner as in Example 12. Eight concentrations of the peptides were used at a common ratio of 1/3 starting from 100 nM. Note that recombinant Human Noggin Protein (R&D) as a positive control was used at the same concentration as that of the peptide. […] The inhibitory activity of BMP7 was evaluated using eight concentrations of the peptides at a common ratio of 1/3 starting from 1,000 nM in the same manner as in Example 12.

Row | Substance | aLISA BMP4 [1] | aLISA BMP7 [2]
1 | 17 ({CH2CO}-ARVYVDR[Bip]GYP[Bip]Y[Phe(4-COOH)][Phe(4-COOH)]SCG-NH2; thioether N-17; not fully specified) [compound 17] | A (showed an inhibitory activity of 50% or more in a zone to which the peptide was added to in an amount of 0.2 nM) | C (showed less than 50% of inhibitory activity in 10 nM-addition zone and showed 50% or more of inhibitory activity in 100 nM-addition zone)
2 | 18 ({CH2CO}-ARVYVDR[Bip]SYP[Bip]Y[Phe(4-COOH)][Phe(4-COOH)]SCG-NH2; thioether N-17; not fully specified) [compound 18] | A (showed an inhibitory activity of 50% or more in a zone to which the peptide was added to in an amount of 0.2 nM) | C (showed less than 50% of inhibitory activity in 10 nM-addition zone and showed 50% or more of inhibitory activity in 100 nM-addition zone)
3 | 22 ({CH2CO}-ARVYVKR[Bip][KCOpipzaa]YP[Bip]Y[Phe(4-COOH)][Phe(4-COOH)]SCG-NH2; thioether N-17; not fully specified) [compound 22] | A (showed an inhibitory activity of 50% or more in a zone to which the peptide was added to in an amount of 0.2 nM) | C (showed less than 50% of inhibitory activity in 10 nM-addition zone and showed 50% or more of inhibitory activity in 100 nM-addition zone)
4 | 24 ({CH2CO}-A[KCOpipzaa]VYV[KCOpipzaa]R[Bip]PYP[Bip]Y[Phe(4-COOH)][Phe(4-COOH)]SCG-NH2; thioether N-17; not fully specified) [compound 24] | A (showed an inhibitory activity of 50% or more in a zone to which the peptide was added to in an amount of 0.2 nM) | C (showed less than 50% of inhibitory activity in 10 nM-addition zone and showed 50% or more of inhibitory activity in 100 nM-addition zone)
5 | 29 ({CH2CO}-ARVYVDR[3Pal(6-Ph)]PYP[Bip]Y[Phe(4-COOH)][Phe(4-COOH)]SCG-NH2; thioether N-17; not fully specified) [compound 29] | A (showed an inhibitory activity of 50% or more in a zone to which the peptide was added to in an amount of 0.2 nM) | ND (the inhibitory activity was less than 30% at the maximum concentration evaluated)
6 | 32 (ARVYVDR[3Pal(6-Ph)]PYP[3Pal(6-Ph)]Y[Phe(4-COOH)][Phe(4-COOH)]SCG-NH2; not fully specified (N-terminus, bridges)) [compound 32] | A (showed an inhibitory activity of 50% or more in a zone to which the peptide was added to in an amount of 0.2 nM) | ND (the inhibitory activity was less than 30% at the maximum concentration evaluated)
7 | 33 ({CH2CO}-ARVYVDR[3Pal(6-Ph)]PYP[3Pal(6-Ph)][4Pal][Phe(4-COOH)][Phe(4-COOH)]SCG-NH2; thioether N-17; not fully specified) [compound 33] | C (showed an inhibitory activity of less than 50% in 0.2 nM-addition zone and showed an inhibitory activity of 50% or more in 2 nM-addition zone were defined as B or C) | ND (the inhibitory activity was less than 30% at the maximum concentration evaluated)
8 | 34 ({CH2CO}-AKVYVDH[Bip]PYP[Bip]Y[Phe(4-COOH)][Phe(4-COOH)]SCG-NH2; thioether N-17; not fully specified) [compound 34] | A (showed an inhibitory activity of 50% or more in a zone to which the peptide was added to in an amount of 0.2 nM) | C (showed less than 50% of inhibitory activity in 10 nM-addition zone and showed 50% or more of inhibitory activity in 100 nM-addition zone)
9 | 35 ({CH2CO}-AKVYVDK[Bip]PYP[Bip]Y[Phe(4-COOH)][Phe(4-COOH)]SCG-NH2; thioether N-17; not fully specified) [compound 35] | A (showed an inhibitory activity of 50% or more in a zone to which the peptide was added to in an amount of 0.2 nM) | ND (the inhibitory activity was less than 30% at the maximum concentration evaluated)
10 | 36 ({CH2CO}-AKVYV[KCOpipzaa]K[Bip]PYP[Bip]Y[Phe(4-COOH)][Phe(4-COOH)]SCG-NH2; thioether N-17; not fully specified) [compound 36] | A (showed an inhibitory activity of 50% or more in a zone to which the peptide was added to in an amount of 0.2 nM) | ND (the inhibitory activity was less than 30% at the maximum concentration evaluated)
11 | 37 ({CH2CO}-AK(Ac)VYVDK[Bip]PYP[Bip]Y[Phe(4-COOH)][Phe(4-COOH)]SCG-NH2; thioether N-17; not fully specified) [compound 37] | A (showed an inhibitory activity of 50% or more in a zone to which the peptide was added to in an amount of 0.2 nM) | ND (the inhibitory activity was less than 30% at the maximum concentration evaluated)
12 | 38 ({CH2CO}-A[KCOpipzaa]VYVDK[Bip]PYP[Bip]Y[Phe(4-COOH)][Phe(4-COOH)]SCG-NH2; thioether N-17; not fully specified) [compound 38] | A (showed an inhibitory activity of 50% or more in a zone to which the peptide was added to in an amount of 0.2 nM) | ND (the inhibitory activity was less than 30% at the maximum concentration evaluated)
13 | 39 ({CH2CO}-AQVYVDK[Bip]PYP[Bip]Y[Phe(4-COOH)][Phe(4-COOH)]SCG-NH2; thioether N-17; not fully specified) [compound 39] | C (showed an inhibitory activity of less than 50% in 0.2 nM-addition zone and showed an inhibitory activity of 50% or more in 2 nM-addition zone were defined as B or C) | ND (the inhibitory activity was less than 30% at the maximum concentration evaluated)
14 | 40 ({CH2CO}-ASVYVDK[Bip]PYP[Bip]Y[Phe(4-COOH)][Phe(4-COOH)]SCG-NH2; thioether N-17; not fully specified) [compound 40] | D (showed inhibitory activity of less than 50% in 2 nM-addition zone) | ND (the inhibitory activity was less than 30% at the maximum concentration evaluated)
